Assay results: US8008456B2, “Compositions containing, methods involving, and uses of non-natural amino acids and polypeptides” (Ambrx, Inc., priority 2004, dated 2011)

What was measured:
[1] = Oxime stability pH 4-8; type: physicochemical
Procedure: This example provides results of four tests that were conducted on certain illustrative non-natural amino acids as an aid for predicting their properties for incorporation into non-natural amino acid polypeptides.

[2] = Pharmacokinetic studies, single s.c. dose in rats, plasma growth hormone ELISA; type: in vivo; conditions: single-dose 1 mg/kg bolus s.c., normal male Sprague-Dawley rats; average (+/- standard deviation)
Procedure: Pharmacokinetic properties of PEG-modified growth hormone compounds were compared to each other and to nonPEGylated growth hormone in male Sprague-Dawley rats (261-425 g) obtained from Charles River Laboratories. Catheters were surgically installed into the carotid artery for blood collection. Following successful catheter installation, animals were assigned to treatment groups (three to six per group) prior to dosing. Animals were dosed subcutaneously with 1 mg/kg of compound in a dose volume of 0.41-0.55 ml/kg. Blood samples were collected at various time points via the indwelling catheter and into EDTA-coated microfuge tubes. Plasma was collected after centrifugation, and stored at −80° C. until analysis. Compound concentrations were measured using antibody sandwich growth hormone ELISA kits from either BioSource International (Camarillo, Calif.) or Diagnostic Systems Laboratories (Webster, Tex.). Concentrations were calculated using standards corresponding to the analog that was dosed. Pharmacokinetic parameters were estimated using the modeling program WinNonlin (Pharsight, version 4.1). Noncompartmental analysis with linear-up/log-down trapezoidal integration was used, and concentration data was uniformly weighted.
Plasma concentrations were obtained at regular intervals following a single subcutaneous dose in rats. […] Plasma samples were taken over the regular time intervals and assayed for injected compound as described. […] Concentration vs time curves were evaluated by noncompartmental analysis (Pharsight, version 4.1). Values shown are averages (+/−standard deviation). Cmax: maximum concentration; terminal t1/2: terminal half-life; AUC0->inf: area under the concentration-time curve extrapolated to infinity; MRT: mean residence time; Cl/f: apparent total, plasma clearance; Vz/f: apparent volume of distribution during terminal phase.

[3] = Pharmacodynamic studies, bodyweight gain in hypophysectomized rats; type: in vivo, Hypophysectomized male Sprague-Dawley rats; conditions: s.c., compared with 30 KPEG-pAF92(his)hGH, p<0.0005
Procedure: Hypophysectomized male Sprague-Dawley rats were obtained from Charles River Laboratories. Pituitaries were surgically removed at 3-4 weeks of age. Animals were allowed to acclimate for a period of three weeks, during which time bodyweight was monitored. Animals with a bodyweight gain of 0-8 g over a period of seven days before the start of the study were included and randomized to treatment groups. Rats were administered either a bolus dose or daily dose subcutaneously. Throughout the study rats were daily and sequentially weighed, anesthetized, bled, and dosed (when applicable). Blood was collected from the orbital sinus using a heparinized capillary tube and placed into an EDTA coated microfuge tube. Plasma was isolated by centrifugation and stored at −80° C. until analysis. The mean (+/−S.D.) plasma concentrations were plotted versus time intervals.
The peptide IGF-1 is a member of the family of somatomedins or insulin-like growth factors. IGF-1 mediates many of the growth-promoting effects of growth hormone. IGF-1 concentrations were measured using a competitive binding enzyme immunoassay kit against the provided rat/mouse IGF-1 standards (Diagnostic Systems Laboratories). Hypophysectomized rats. Rats (n=5-7 per group) were given either a single dose or daily dose subcutaneously. Animals were sequentially weighed, anesthetized, bled, and dosed (when applicable) daily.

Oxime Stability pH 4-8 [1] | Compound | AUC0->inf [2] | Cl/f [2] | Cmax [2] | MRT [2] | Terminal t1/2 [2] | bodyweight gain at day 9 [3]
− − | N[C@@H](Cc1ccc2c(c1)NC(=O)C2=O)C(=O)O |  |  |  |  |  | 
 | 30KPEG-pAF35(his)hGH: "hGH polypeptides comprising p-acetyl-phenylalanine covalently-linked to 30 kDa PEG at positions 35 and 92" | 39,918 (±22,683) ng × hr/ml | 35 (±27) ml/hr/kg | 1,885 (±1,011) ng/ml | 19.16 (±4.00) h | 4.85 (±0.80) h | greater weight gain
